Experimental data taken from the DeepSol protein solubility set.

Assay: soluble on expression in E. coli; label from the status in PepcDB or PDB records

Sequence	soluble on expression in E. coli
MSLDKVYPIGSQYTINGFIIGDDTTENGYPITAKIEVVDTKNTISPKLIAHTIPLNNVKINGNNRLTSNRDLAIKEIISWDVSQQLYNYRDTYGLSTEGYTRSDGWDSPETKLKGHGSGHYMSALALAYAAATNPSHKEILRRNITRMVNELRECQERTFVWSEELGRYLEARDFAPEEELKKMKGTWEAFDEHKTKWATYGYGYLNAIPPHHPALIEMYRAYNNSDWVWAPYYSIHKQLAGLIDIATYMDDKSIADKALLIAKDMGLWVWNRMHYRTYVKKDGTQEERRTHPGNRYEMWNMYIAGEVGGMGESLARLSEMVSAPEEKARLIEASNCFDSPAFYEPLSKNIDDIRNRHANQHIPMIIGALRSYLSNNDTFYYHVSHNFWNLIQGRYRYSTGGVGNGEMFRQPYTQIVSMAMNGVSEGESHSNPHINETCCAYNLLKLTKDLNCFNPDDARYMDYYERTLYNQIIGSLHPEHYQTTYQYAVGLNASKPWGNETPQSTCCGGTGSENHVKYQEATYFVSDNTLWVALYMPTTLHWEEKNITLQQECLWPAKSSTIKVTAGEARFAMKLRVPYWATDGFDVKLNGISIATHYQPCSYAVIPTRQWKENDIVEITMPFTKHIDYGPDKLPAEIASKDGHQLETAWVGTLMHGPFAMTATDITNWTEATLNIDSRLASITVVEPNGPQTGTTGNLYTLMQGGRTFQPDYYRHDHTTHYFRINHIKDPTVELKMALSAKLRETTAFSKSHYTKASFAKLTTAIQEGEKLMKISPLTETTISTCVDNIDKAIESLVASRLDKSNLEASIHIAKKCNPDLYTTDSFKTLQATLESAHEVMDNIDLQTVIDKQTLSLQDATASLVLANNVDKTELKELLNIAMERQTNQEKWNALAVKIPEFAPWAHFGFTRLKRTLEHAQNVYFNKDKNYSQGEVNAIVASLNTVINTMRPGNLPEMEDLRPLSALLRRVGTIDDSTDPTLKDAVAFTEMVIKYVADGSGTHDMIETAISRLKSAAGEGHHHHHH	soluble
MPALPPVYTPSGAPSSVHAPPAVPPVPVPTQPLRSEYQTSNDACIKRLEELNIAPAAKLYPTPTEPGKCGVEAEIQTNVFGIEMHQDSLFYQYSVNITTELKNGKEVTFTKKGKDDFVVTERHDKCCAILFRALGDYEEFFKTSDSCLIYDGQSILFSNVDLFQGFREGAVKTKYMQLDGGEMDHKDLKSLPCIKLEVFPTKNPAVKFTREAVARRATDSNLDSVSLAYQQILELALTQPCLRNTARYVVFDHGKMFFIDPLGEGFEKCDVVDVGDGKQVVPGLKKTINFIEGPYGRGRSNPSVVIDGMKVAFHKNQPILDKLKEITTQPVEHGLKGLEKDRCAAVIKGLDCYSTYGGRERHHKIEGIHHEGARNARFELNDGGSCTVAQYFEDVYNITLRYPDTNLIVSKERGNINFYPMELLKISSHQRVQIPQLTSAQSQKTTKESAVLPDVRQRLILTGKNAAQISSDNEVLGKMGVSVCEDPLMVKGRSIPAVKLANAEIGANPINVKDNKWRANRFTRPATAPNVWAMYVVGTASTRITLDTLKKFADEFAAMCKSKGVNMPAPADISLIHMDAIESRLYDATKANCTFVFIITDDSITTLHQRYKMIEKDTKMIVQDMKLSKALSVINAGKRLTLENVINKTNVKLGGSNYVFVDAKKQLDSHLIIGVGISAPPAGTKYAMENKGVLNPNVIGYAYNAQHNQEFSGDFVLNSASQDTLAPIEDIVMHSLNEYQKFHDGGLPRRVIVYRTGTSEGNHGSIMAYEIPLARAAMRDFSPDIQLVYIVVSKDHSFRFFKPDLASLASRPQATSSTASRHSAMPAAPKAWDLNIAPGILVDSIVTNPACKQFFLNSHITLQGTAKTPLYTVLADDAKVSMTALEDITYKLCHLHQIVGLPTSLPTPLYVANEYAKRGRNLWNEAVALNNVPTVSGPEADRLKELTKSICYKASGDLTGRRVNA	not soluble
MKLYMSVDMEGISGLPDDTFVDSGKRNYERGRLIMTEEANYCIAEAFNSGCTEVLVNDSHSKMNNLMVEKLHPEADLISGDVKPFSMVEGLDDTFRGALFLGYHARASTPGVMSHSMIFGVRHFYINDRPVGELGLNAYVAGYYDVPVLMVAGDDRAAKEAEELIPNVTTAAVKQTISRSAVKCLSPAKRGRLLTEKTAFALQNKDKVKPLTPPDRPVLSIEFANYGQAEWANLMPGTEIKTGTTTVQFQAKDMLEAYQAMLVMTELAMRTSFC	soluble
MSKSIYEQYLQAKADNPGKYARDLATLMGISEAELTHSRVSHDAKRLKGDARALLAALEAVGEVKAITRNTYAVHEQMGRYENQHLNGHAGLILNPRNLDLRLFLNQWASAFTLTEETRHGVRHSIQFFDHQGDALHKVYVTEQTDMPAWEALLAQFITTENPELQLEPLSAPEVTEPTATDEAVDAEWRAMTDVHQFFQLLKRNNLTRQQAFRAVGNDLAYQVDNSSLTQLLNIAQQEQNEIMIFVGNRGCVQIFTGMIEKVTPHQDWINVFNQRFTLHLIETTIAESWITRKPTKDGFVTSLELFAADGTQIAQLYGQRTEGQPEQTQWRDQIARLNNKDIAA	soluble
MEAAANRQLIVSFTPYEWKYVRQLFRSRRIEDVKECVIILATWISRTGENTPVAISCSHVLLQAIYAELLSTGMCESERYMAIDDLRSKHGYAIVRFVNYVNEMGQTGATLKNMVHAVKSFGIPKKIVDIRHAITHQNCPDIAELRYATNFCLDWLWKNFWLSDARVAMNSAAATNSSKNPTSSSEFGGQRGREQQYVSSLRAFNTWRVKNRQLTTELEWSEVAELLALKHHILLDSTGFLTCFMRDGHLIQTPGQWKNWKLPVTCSNDNWQIPEEIQAFWEPLFHVMFSLKLGAEIVVAFLWRLREPMIKDMTRHQITAYVRMIVQQFADADVFSDEEWYKVLDHLLPVAKNFSTEFIELVMARCTTLAHKRKKQIRQILNISTKSHVESPSTSSSDTVHTVSDLQKLLKKSSKSVVKSEPVTSNADGNRTGIELCDVAAWAEVPFGMAPGQRIETFTVVLDHHGSDKSRKRRAFDAAITLDED	not soluble
MGHHHHHHMSEFYKLAPVDKKGQPFPFDQLKGKVVLIVNVASKCGFTPQYKELEALYKRYKDEGFTIIGFPCNQFGHQEPGSDEEIAQFCQLNYGVTFPIMKKIDVNGGNEDPVYKFLKSQKSGMLGLRGIKWNFEKFLVDKKGKVYERYSSLTKPSSLSETIEELLKEVE	soluble
DDSAVTLFIPGYAGNRFSFGGMLQRFTAGGIANKSLVVMIDRHNHPHVTGELDAYRPMVQLIFATPRVAVRQQAAGVLAVVQYLIAHEHVQTINLVAHSMGGVVLFQYLTTAAKLVNLPEVRKVVTIGAPFNDSEVGQNTYPIENHPLTATGPTKTTPVYNYFLRTLQRLPNTISYLNIAGNIGDAAQSDGAVALNSALSLRFLLRPTRDQYQEFVVHGKNARHSRLHENYEVDRQIVQFFISRSHKKGCW	not soluble
METQWTRMTANEAAEIIQHNDMVAFSGFTPAGSPKALPTAIARRANEQHEAKKPYQIRLLTGASISAAADDVLSDADAVSWRAPYQTSSGLRKKINQGAVSFVDLHLSEVAQMVNYGFFGDIDVAVIEASALAPDGRVWLTSGIGNAPTWLLRAKKVIIELNHYHDPRVAELADIVIPGAPPRRNSVSIFHAMDRVGTRYVQIDPKKIVAVVETNLPDAGNMLDKQNPMCQQIADNVVTFLLQEMAHGRIPPEFLPLQSGVGNINNAVMARLGENPVIPPFMMYSEVLQESVVHLLETGKISGASASSLTISADSLRKIYDNMDYFASRIVLRPQEISNNPEIIRRLGVIALNVGLEFDIYGHANSTHVAGVDLMNGIGGSGDFERNAYLSIFMAPSIAKEGKISTVVPMCSHVDHSEHSVKVIITEQGIADLRGLSPLQRARTIIDNCAHPMYRDYLHRYLENAPGGHIHHDLSHVFDLHRNLIATGSMLGLEHHHHHH	not soluble
MEKSSSNFIQNGKRDHGGKLRQYNYKLEEAEYRYFTEERLFYRRRNPVEKIAQRIPKPQIEGTFTWSDELRCNYDGNTQFLPVEALEGCLPLEKLNQHLKPGFRLEVVVRPSLDPSITTKSPEIRWFGEVTAVCGFYVAIKFVGELNRRPCWFHMLSEDIFDIGSGLKQDPAMKWLQYRPLSLLKPMQCPKFWRRGSTPAPPVPRPTEEILDEFQAELHENRISEPKIFDQLRHLAHRPSRFRLNQRVELLNYLEPTEIRVARILRILGRRLMVMVTAQDYPEDLPSVEAKDRQVQHENVEFWVDESSFFLFPVGFAMINGLRTKATEGYLEHSRRIAEGSGTEKLNLLKVGQKFELLDPLSDLRQSFCVATIRKICKTPGFLIISPDETESDDESFPIHIDNHFMHPVGYAEKFGIKLDRLAGTEPGKFKWEGYLKEKQAEKIPDEMLRPLPSKERRHMFEFGRVLEAVGQNETYWISPASVEEVHGRTVLIEFQGWDSEFSELYDMDSHDLLPAGWCEFFNFKLRHPVLPVNDPNAENGEYD	not soluble
TSLFTTADHYHTPLGPDGTPHAFFEALRDEAETTPIGWSEAYGGHWVVAGYKEIQAVIQNTKAFSNKGVTFPRYETGEFELMMAGQDDPVHKKYRQLVAKPFSPEATDLFTEQLRQSTNDLIDARIELGEGDAATWLANEIPARLTAILLGLPPEDGDTYRRWVWAITHVENPEEGAEIFAELVAHARTLIAERRTNPGNDIMSRVIMSKIDGESLSEDDLIGFFTILLLGGIDATARFLSSVFWRLAWDIELRRRLIAHPELIPNAVDELLRFYGPAMVGRLVTQEVTVGDITMKPGQTAMLWFPIASRDRSAFDSPDNIVIERTPNRHLSLGHGIHRCLGAHLIRVEARVAITEFLKRIPEFSLDPNKECEWLMGQVAGMLHVPIIFPKGKRLSE	soluble
SKVKEGKDLIVGLDIGTSKIVAIVAEMKPEGGFEIIGLGSHLSRGLKKGVVVNIEATVNAIQRALEEVELMAGCRISEVYAGIAGNHIRGFNSHGMVAIKDKEVTQADVEKVMETAKAVNIPADQ	not soluble
MGSDKIHHHHHHMADLKKQIASGKIAPVYFFQGPESWLKEEIETQLKAAIFPSENEAALNTLVLYGPDLTLGQIVSAASEYPMFTEKKLVVVRQFDKLKKVTDKTESQRQEKSLLSYLSDPPSFTVLVLDADEIEKTELEKAPYKHLKAFRHDFGAIKNAEIFAAERAREAGWEFEPEALKTFSGYIEPSSRLICQEIEKLTLYASNKRPERRITLDDVCDCVGISRKYNVFELEKALVSKNLRQCSGIALMIMEQEGQKEGLMNIVRYLTTFFLRIWKLQTPGAQQLSLQETAAMLGMYGRQEYFAKNFIGYARQFSAAETENAILALRDADAALKGIIPSPDDRFTLLKLMQQLFN	not soluble
MSEPKRLFFAIDLPDDARAQIIAWRAAHFASEDGRPVAAANLHLTLAFLGDVSSDKQRALAQLAGRIRQPGFTLHLDDAGQWLRSRVVWLGMRQPPRGLLQLANMLRAQAARSGCYQSPQPFHPHITLLRDASHTVAIPPPGFCWSFPVTSFALYASSYGQGRTRYAELQRWTLGE	not soluble
MATVSDDYAQIDISTEEKDKLVAEVMRHVLFKTHQTAGCPIKREELTQIVTKNYRQRVLPALVIKEAGDRLAATFGYEMRELQRTRAPSTRSGRPSQQQVNVDAKSYVLVSKLDPEVYSKYVEHKEAAHVSGFAFVVISIVHLSGGKISEEDLWHQLRRLGLNESDENHPVLGNNKQALELLVQQRYLLKEKLSGPEGHSMMYELAERALDESISGKLKDYISQVVSTSTAAEVD	soluble
MSLTETQSLELAKELISRPSVTPDDRDCQKLMAERLHKIGFAAEEMHFGNTKNIWLRRGTKAPVVCFAGHTDVVPTGPVEKWDSPPFEPAERDGRLYGRGAADMKTSIACFVTACERFVAKHPNHQGSIALLITSDEEGDALDGTTKVVDVLKARDELIDYCIVGEPTAVDKLGDMIKNGRRGSLSGNLTVKGKQGHIAYPHLAINPVHTFAPALLELTQEVWDEGNEYFPPTSFQISNINGGTGATNVIPGELNVKFNFRFSTESTEAGLKQRVHAILDKHGVQYDLQWSCSGQPFLTQAGKLTDVARAAIAETCGIEAELSTTGGTSDGRFIKAMAQELIELGPSNATIHQINENVRLNDIPKLSAVYEGILVRLLAGNAVEGGSHHHHHH	soluble
